Reference: publication PMC6454061
Positions count from the first letter of the chain named. Names and notes keep the numbering of the source. One block for each molecule: values may come before it.

Tests used:
[1] = biological target: β1,4-galactosyltransferase B4GalT-I (UniProt P15291); assay: FRET in cells (heteromer assembly); settings: n = 3, 15,000 cells each; parent: est. 100; read off a plot
[2] = biological target: ST6Gal-I cysteine mutant C24S (UniProt P15907); assay: FRET in cells (homomer assembly); settings: n = 3, 15,000 cells each; parent: est. 100; read off a plot
[3] = biological target: T1, ST6Gal-I cysteine mutant C406A, P15907; assay: FRET in cells (homomer assembly); settings: chain shown with the change; n = 3, 15,000 cells each; parent: est. 100; read off a plot
T1 chain: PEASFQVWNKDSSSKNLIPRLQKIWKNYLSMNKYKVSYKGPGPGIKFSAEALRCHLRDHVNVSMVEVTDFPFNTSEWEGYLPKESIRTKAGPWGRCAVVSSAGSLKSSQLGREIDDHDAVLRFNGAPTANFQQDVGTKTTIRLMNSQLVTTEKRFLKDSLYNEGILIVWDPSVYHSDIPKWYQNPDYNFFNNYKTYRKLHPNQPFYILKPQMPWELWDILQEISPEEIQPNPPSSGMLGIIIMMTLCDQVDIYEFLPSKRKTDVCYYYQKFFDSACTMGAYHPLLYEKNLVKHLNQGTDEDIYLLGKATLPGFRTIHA

[4] = biological target: T2, β1,4-galactosyltransferase B4GalT-I, P15291; assay: FRET in cells (heteromer assembly); settings: chain shown with the change; n = 3, 15,000 cells each; parent: est. 100; read off a plot
T2 chain: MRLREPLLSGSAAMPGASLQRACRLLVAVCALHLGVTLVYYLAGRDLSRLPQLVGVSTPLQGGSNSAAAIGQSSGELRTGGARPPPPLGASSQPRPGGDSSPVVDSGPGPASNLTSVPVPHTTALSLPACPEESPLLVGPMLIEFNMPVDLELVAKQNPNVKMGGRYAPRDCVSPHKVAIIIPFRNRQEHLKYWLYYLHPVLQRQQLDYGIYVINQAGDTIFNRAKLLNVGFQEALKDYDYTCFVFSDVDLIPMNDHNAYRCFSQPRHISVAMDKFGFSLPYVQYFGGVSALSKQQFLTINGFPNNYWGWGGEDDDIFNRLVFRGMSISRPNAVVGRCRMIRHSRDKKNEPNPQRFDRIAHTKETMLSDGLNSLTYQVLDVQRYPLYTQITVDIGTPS

[5] = biological target: T3, ST6Gal-I cysteine mutant C353A, P15907; assay: FRET in cells (homomer assembly); settings: chain shown with the change; n = 3, 15,000 cells each; parent: est. 100; read off a plot
T3 chain: T1 chain with C265A, A318C

percent of parent (% of WT control) [1]: 97
percent of parent (% of WT control) [2]: 70
Molecule: α-2,6-sialyltransferase ST6Gal-I, wild type (from UniProt P15907) C24S

percent of parent (% of WT control) [3]: 60
percent of parent (% of WT control) [4]: 84
B1: α-2,6-sialyltransferase ST6Gal-I, wild type, P15907 C406A (protein)
chain: T1 chain

percent of parent (% of WT control) [5]: 83
B2: α-2,6-sialyltransferase ST6Gal-I, wild type, P15907 C353A (protein)
chain: T1 chain with C265A, A318C
